Reference: US20170168078A1 (EISAI R AND D MANAGEMENT, published 2017)

B1: Monoclonal antibody 24F12.B1 (antibody, mouse IgG1, V domains shown)
VH: SGGGLVRPGGSLKLSCAASGFTFSSYAMSWVRQSPEKRLEWVAEIGSGGSYTYYPDTVTGRFTISRDNAKSTLYLEMSSLRSEDTAIYYCARETTAGYFDYWGQGTTLTVSS
VL: TSSLSASLGDRVTISCSASQGINNFLNWYQQKPDGTVKLLIYYTSSLHSGVPSRFSGSGSGTDYSLTISNLEPEDIAIYYCQHFSKLPWTFGGGTKLEIKR
notes: also called ATCC PTA-11886
B2: Monoclonal antibody 26B3.F2 (antibody, mouse IgG1, V domains shown)
VH: GPELVKPGASVKISCKASDYSFTGYFMNWVMQSHGKSLEWIGRIFPYNGDTFYNQKFKGRATLTVDKSSSTAHMELRSLASEDSAVYFCARGTHYFDYWGQGTTLTVSS
VL: PASLSASVGETVTITCRTSENIFSYLAWYQQKQGISPQLLVYNAKTLAEGVPSRFSGSGSGTQFSLKINSLQPEDFGSYYCQHHYAFPWTFGGGSKLEIKR
notes: also called MAb 26B3; ATCC PTA-11885
B3: Monoclonal antibody 9F3.H9.H3.H3.B5.G2 (antibody, mouse IgG2a, V domains shown)
VH: ESGPGLVRPSQSLSLTCSVTGYSITSGYYWNWIRQFPGSRLEWMGYIKSDGSNNYNPSLKNRISITRDTSKNQFFLKLNSVTTEDTATYFCTREWKAMDYWGQGTSVTVSS
VL: PAIMSASPGEKVTMTCRASSTVSYSYLHWYQQKSGASPQLWIYGTSNLASGVPARFSGSGSGTSYSLTISSVEAEDAATYYCQQYSGYPLTFGAGTKLELKR
notes: also called ATCC PTA-11887
B4: Monoclonal antibody 19D4.B7 (antibody, mouse IgG2a, V domains shown)
VH: GAELVKPGASVKLSCTASGFNIKHPYMHWVKQRPDQGLEWIGRIDPANGNTKYDPKFQGKATITADTSSNTAYLQLSSLTSEDTAVYYCGREEVADYTMDYWGQGTSVTVSS
VL: PASLAVSLGQRATISCRASESVDTYGNNFIHWYQQKPGQPPKLLIYLASNLESGVPARFSGSGSRTDFTLTIDPVEADDAATYYCQQNNGDPWTFGGGTKLEIKR
notes: It was labelled with Ru (about 13 labels per IgG) when used as the detector in the ECL assays; also called ATCC PTA-11884

What follows are binders tested against T1, human folate receptor beta (FRβ) expressed on CHO cells (human, UniProt P14207 17-230) (assay: western blot of nonreduced whole cell lysates of CHO cells, SDS-PAGE).
T1 construct: whole, on cells; also called CHO-FRβ
T1 sequence (P14207 17-230): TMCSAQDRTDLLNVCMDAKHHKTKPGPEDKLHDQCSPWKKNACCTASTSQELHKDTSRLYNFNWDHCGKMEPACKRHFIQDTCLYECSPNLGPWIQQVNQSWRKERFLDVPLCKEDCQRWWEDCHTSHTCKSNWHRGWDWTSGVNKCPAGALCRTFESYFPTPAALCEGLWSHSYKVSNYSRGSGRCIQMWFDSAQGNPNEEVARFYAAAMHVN
B1: no binding (tested: 1 µg/mL). B2: no binding (tested: 1 µg/mL). B3: no binding (tested: 1 µg/mL).

Each binder was assayed against T2, purified recombinant human folate receptor alpha (rh-FRα) (human, UniProt P15328 25-234) (assay: SPR, BIACORE T100, antibody captured on anti-mouse IgG, rh-FRα 1-30 nM as analyte, single-cycle kinetics, 1:1 fit).
T2 construct: One is secreted from CHO cells, with a human Ig kappa leader and a C-terminal 6x His tag replacing the GPI attachment site; The other is from Sf9 cells, with an N-terminal 6x His tag and the GPI site intact; also called FR-alpha; FOLR1
T2 sequence (P15328 25-234 limits assumed): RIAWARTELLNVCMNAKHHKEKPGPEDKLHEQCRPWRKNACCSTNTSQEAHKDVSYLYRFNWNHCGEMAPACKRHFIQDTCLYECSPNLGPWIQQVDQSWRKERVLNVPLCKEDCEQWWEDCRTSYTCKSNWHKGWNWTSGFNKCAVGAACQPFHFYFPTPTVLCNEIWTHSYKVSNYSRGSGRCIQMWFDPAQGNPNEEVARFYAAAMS
Protocol: Binding characteristics of the purified monoclonal antibodies to FRα were determined by surface plasmon resonance (SPR) experiments. All of the SPR experiments were performed at 25° C. using a BIACORE™ T100 with research grade CM5 chips (GE Healthcare), as specified by the manufacturer. Initially, anti-mouse IgG provided in the mouse antibody capture kit (GE Healthcare) was immobilized by amide coupling to CM5 sensor chips. Mouse anti-FRα monoclonal antibodies (26B3, 24F12, 19D4, or 9F3) were captured on individual flow cells per binding cycle, while the fourth flow cell was used as a reference. Binding experiments were performed with HBS-P (GE Healthcare) as running buffer and at a flow rate of 30 μL/min. Each monoclonal antibody sample (0.5 μg/mL) was injected for 3 minutes to capture the antibody. Various concentrations of purified recombinant human FRα (rh-FRα) (1 nM-30 nM) were then injected over the FRα-specific and reference surfaces for 3 minutes to record binding sensograms using a single-cycle kinetics method. The dissociation profile was monitored for 25 minutes. In between bindings, the surface was regenerated with a 30 μl injection of 10 mM glycine (pH 1.7). The sensograms were processed and fitted to a 1:1 Langmuir binding model using BIACORE™ T100 evaluation software (version 2.0.1).
With B1 the Kd was 0.102 nM, the koff was 3.99e-05 s⁻¹ and the kon was 393000 M⁻¹ s⁻¹. With B2 the Kd was 0.0273 nM, the koff was 1.43e-05 s⁻¹ and the kon was 524000 M⁻¹ s⁻¹. In the case of B3, the Kd is reported as 0.715 nM, the koff is reported as 0.00031 s⁻¹ and the kon is reported as 434000 M⁻¹ s⁻¹. B4 gave a Kd of 0.567 nM, a koff of 0.000242 s⁻¹ and a kon of 427000 M⁻¹ s⁻¹.

These binders were tested against T3, human FRα expressed on CHO cells (GPI-linked) (human, UniProt P15328 25-234) (assay: flow cytometry on CHO cells expressing FRα, antibody 1 µg/mL, FITC secondary).
T3 construct: CHO/CHOK1 cells stably expressing GPI-linked human FRα; They were used intact in flow cytometry and as nonreduced whole cell lysates in the western blots; also called native FRα; CHO-FRα
T3 sequence (P15328 25-234 limits assumed): as above
Protocol: Flow cytometry studies were conducted to assess the ability of selected FRα-specific antibodies to bind to the native protein. For these studies Chinese hamster ovary (CHO) cells expressing FRα, were harvested, washed, and re-suspended in ice-cold growth media (RPMI supplemented with 10% FBS). Cells were incubated for 1 hour on ice with 9F3, 19D4, 24F12, or 26B3 (1 μg/mL), washed and then incubated with FITC-conjugated secondary antibodies [dilution 1:100] (Southern Biotech, Birmingham, Ala.). Prior to analysis, cells were labeled with 7-amino-actinomycin D (7-AAD) (BD Biosciences, Franklin Lakes, N.J.) for the exclusion of nonviable cells. CHO cells not expressing FRα were also subjected to the same experimental procedures, as a negative control. Cells were analyzed on an […]™ Flow Cytometer (GUAVA® Technologies, Hayward, Calif.). The data provided in Table 4 indicate that all four antibodies are capable of binding native FRα.
For B1, the “Geometric Mean” value was 777. B2 was tested, and the “Geometric Mean” value was 854. B3 was tested, and the “Geometric Mean” value was 760. In the case of B4, the “Geometric Mean” value is reported as 1130.

These binders were tested against T4, purified recombinant human FRΓ (assay: western blot of 0.5 µg purified protein per lane, reduced and nonreduced, SDS-PAGE).
T4 construct: also called human folate receptor gamma (purified)
T4 sequence (chain, as listed by the source limits assumed): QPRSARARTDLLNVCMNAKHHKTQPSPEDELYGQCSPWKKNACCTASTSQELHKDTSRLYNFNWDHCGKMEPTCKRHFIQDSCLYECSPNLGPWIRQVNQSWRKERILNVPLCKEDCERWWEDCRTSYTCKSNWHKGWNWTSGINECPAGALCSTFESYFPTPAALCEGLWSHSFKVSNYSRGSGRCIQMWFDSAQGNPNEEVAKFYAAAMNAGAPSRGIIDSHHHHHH
Protocol: (§1) Experiments were conducted to determine whether any of the FRα-specific antibodies, described above, could recognize denatured forms of FRα. […] Lysates were pre-cleared by centrifugation at 13,000 rpm for 15 minutes to remove debris. For reduced and denatured samples, equal amounts of protein (20 μg) were boiled for 10 minutes in NUPAGE® LDS sample buffer (Invitrogen) containing 5% β-mercaptoethanol+40 mM DTT. […] The membrane was blocked in PBST+ 5% non-fat milk for lh at room temperature after which time, the membrane was washed twice with PBST. Immunoblotting was conducted using purified mouse monoclonal antibodies 9F3, 19D4, 24F12, or 26B3 (1 μg/mL) specific for FRα, which were detected with a goat-anti-mouse HRP-conjugated antibody and visualized using SUPERSIGNAL™ West Pico chemiluminescent substrate (Pierce, Rockford, Ill.). Luminescence was visualized using the Omega 12iC molecular imaging system (Ultra-Lum, Claremont, Calif.) with image analysis performed using ULTRAQUANT™ 6.0 software (Ultra-Lum).
(§2) Western blot analyses were also performed using purified folate receptor preparations. For these experiments, 0.5 μg of purified human FRα, β, Γ or Δ, produced as described in Example 1, were incubated in 1× SDS-PAGE sample loading buffer (Invitrogen) with or without 20 mM DTT, boiled for 10 min, and electrophoresed on 4-12% gradient SDS-PAGE gels. Protein was transferred to PVDF membrane and blots probed as described above. Gels were run using Benchmark™ prestained protein ladder (NOVEX®). Gels using purified recombinant FR proteins were also visualized via silverstaining to ensure equal amounts of protein were loaded.
B1: no binding (tested: 1 µg/mL). B2: no binding (tested: 1 µg/mL). B4: no binding (tested: 1 µg/mL).

What follows are binders tested against T5, purified recombinant human FRβ in the same assay as above.
T5 construct: also called human folate receptor beta (purified, secreted form)
T5 sequence (chain, as listed by the source limits assumed): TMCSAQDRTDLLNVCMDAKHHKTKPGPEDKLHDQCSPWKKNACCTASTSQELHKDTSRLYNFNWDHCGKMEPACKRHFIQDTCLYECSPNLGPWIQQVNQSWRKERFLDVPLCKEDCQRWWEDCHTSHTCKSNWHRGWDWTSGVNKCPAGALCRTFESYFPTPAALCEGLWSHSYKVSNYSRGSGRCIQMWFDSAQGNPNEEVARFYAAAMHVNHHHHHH
Protocol: as §1, §2
B1: no binding (tested: 1 µg/mL). B2: no binding (tested: 1 µg/mL). B3: no binding (tested: 1 µg/mL). B4: no binding (tested: 1 µg/mL).
